# Results taken from paper PMC4112721 (2013).
# B1: VRC01 from stably transformed (transgenic) Nicotiana tabacum plants (antibody, V domains shown)
# VH: QVQLVQSGGQMKKPGESMRISCRASGYEFIDCTLNWIRLAPGKRPEWMGWLKPRGGAVNYARPLQGRVTMTRDVYSDTAFLELRSLTVDDTAVYFCTRGKNCDYNWDFEHWGRGTPVIVSS
# VL: EIVLTQSPGTLSLSPGETAIISCRTSQYGSLAWYQQRPGQAPRLVIYSGSTRAAGIPDRFSGSRWGPDYNLTISNLESGDFGVYYCQQYEFFGQGTKVQVD
# modifications: N-glycan at N297 in the CH2 region (glycopeptide […]), GnGnXF^3 as the major glycan structure | N-glycan in the FR3 of the VL region (glycopeptide […]), GnGnXF^3 as the major glycan structure
# B2: VRC01 from transiently transformed Nicotiana benthamiana plants (antibody, V domains shown)
# VH: QVQLVQSGGQMKKPGESMRISCRASGYEFIDCTLNWIRLAPGKRPEWMGWLKPRGGAVNYARPLQGRVTMTRDVYSDTAFLELRSLTVDDTAVYFCTRGKNCDYNWDFEHWGRGTPVIVSS
# VL: EIVLTQSPGTLSLSPGETAIISCRTSQYGSLAWYQQRPGQAPRLVIYSGSTRAAGIPDRFSGSRWGPDYNLTISNLESGDFGVYYCQQYEFFGQGTKVQVD
# modifications: N-glycan at N297 in the CH2 region (glycopeptide […]), GnGnXF^3 as the major glycan structure | N-glycan in the FR3 of the VL region (glycopeptide […]), GnGnXF^3 as the major glycan structure
# B3: VRC01 from HEK cells (antibody, V domains shown)
# VH: QVQLVQSGGQMKKPGESMRISCRASGYEFIDCTLNWIRLAPGKRPEWMGWLKPRGGAVNYARPLQGRVTMTRDVYSDTAFLELRSLTVDDTAVYFCTRGKNCDYNWDFEHWGRGTPVIVSS
# VL: EIVLTQSPGTLSLSPGETAIISCRTSQYGSLAWYQQRPGQAPRLVIYSGSTRAAGIPDRFSGSRWGPDYNLTISNLESGDFGVYYCQQYEFFGQGTKVQVD
# modifications: N-glycan at N297 in the CH2 region (glycopeptide […]), GnGnF^6 as the predominant glycan structure | N-glycan in the FR3 of the VL region (glycopeptide […]), at least ten glycan structures
# Molecular target: HIV-1 envelope glycoprotein gp120 IIIB (HIV-1 (isolate IIIB), UniProt P04578 33-511)
# Experiment: SPR
row,Binder,koff
1,B1,0.000126 s⁻¹
2,B2,0.000159 s⁻¹
3,B3,5.6e-05 s⁻¹
